Test results published in the supplement of paper PMC10266784.

B1: library; numbered along this chain (parent)
chain: MAAAAAAAAEQQSSNGPVKKSMREKAVERRSVNKEHNSNFKAGYIPIDEDRLHKTGLRGRKGNLAICVIILLFILAVINLIITLVIWAVIRIGPNGCDSMEFHESGLLRFKQVSDMGVIHPLYKSTVGGRRNENLVITGNNQPIVFQQGTTKLSVENNKTSITSDIGMQFFDPRTQNILFSTDYETHEFHLPSGVKSLNVQKASTERITSNATSDLNIKVDGRAIVRGNEGVFIMGKTIEFHMGGNMELKAENSIILNGSVMVSTTRLPSSSSGDQLGSGDWVRYKLCMCADGTLFKVQVTSQNMGCQISDNPCGNTH

Variants of: B1
Experiment: SGCB cell-surface expression functional score (HA stain, bin4 vs bin1, normalised to synonymous) (log10 ratio); higher = more cell-surface SGCB (functional)
Outline: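 Human beta-sarcoglycan, tagged with HA and fused to YFP, was built into codon-saturation libraries and delivered by lentivirus at MOI <0.1 into HEK293 cells that stably express alpha-, gamma- and delta-sarcoglycan. After 72 hours, YFP-positive cells were sorted and grown for 5–7 days, then stained on ice with Alexa Fluor 647 anti-HA, fixed, sorted into four 5% intensity bins and amplicon-sequenced. Each variant's functional score is the log ratio of its frequency in the highest bin to that in the lowest bin, taken as the median across codons and transductions. Transductions were done in duplicate, and synonymous variants were scaled per section to mean 0, SD 0.5.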

Compared with MAAAAAAAAEQQSSNGPVKKSMREKAVERRSVNKEHNSNFKAGYIPIDEDRLHKTGLRGRKGNLAICVIILLFILAVINLIITLVIWAVIRIGPNGCDSMEFHESGLLRFKQVSDMGVIHPLYKSTVGGRRNENLVITGNYQPIVFQQGTTKLSVENNKTSITSDIGMQFFDPRTQNILFSTDYETHEFHLPSGVKSLNVQKASTERITSNATSDLNIKVDGRAIVRGNEGVFIMGKTIEFHMGGNMELKAENSIILNGSVMVSTTRLPSSSSGDQLGSGDWVRYKLCMCADGTLFKVQVTSQNMGCQISDNPCGNTH [N141Y], MAAAAAAAAEQQSSNGPVKKSMREKAVERRSVNKEHNSNFKAGYIPIDEDRLHKTGLRGRKGNLAICVIILLFILAVINLIITLVIWAVIRIGPNGCDSMEFHESGLLRFKQVSDMGVIHPLYKSTVGGRRNENLVITGNRQPIVFQQGTTKLSVENNKTSITSDIGMQFFDPRTQNILFSTDYETHEFHLPSGVKSLNVQKASTERITSNATSDLNIKVDGRAIVRGNEGVFIMGKTIEFHMGGNMELKAENSIILNGSVMVSTTRLPSSSSGDQLGSGDWVRYKLCMCADGTLFKVQVTSQNMGCQISDNPCGNTH [N141R] is higher in “SGCB cell-surface expression functional score (log10)” value: -0.56 for the first, 0.07 for the second.

MAAAAAAAAEQQSSNGPVKKSMREKAVERRSVNKEHNSNFKAGYIPIDEDRLHKTGLRGRKGNLAICVIILLFILAVINLIITLVIWAVIRIGPNGCDSMEFHESGLLRFKQVSDMGVIHPLYKSTVGGRRNENLVITGNVQPIVFQQGTTKLSVENNKTSITSDIGMQFFDPRTQNILFSTDYETHEFHLPSGVKSLNVQKASTERITSNATSDLNIKVDGRAIVRGNEGVFIMGKTIEFHMGGNMELKAENSIILNGSVMVSTTRLPSSSSGDQLGSGDWVRYKLCMCADGTLFKVQVTSQNMGCQISDNPCGNTH [N141V] and MAAAAAAAAEQQSSNGPVKKSMREKAVERRSVNKEHNSNFKAGYIPIDEDRLHKTGLRGRKGNLAICVIILLFILAVINLIITLVIWAVIRIGPNGCDSMEFHESGLLRFKQVSDMGVIHPLYKSTVGGRRNENLVITGNQQPIVFQQGTTKLSVENNKTSITSDIGMQFFDPRTQNILFSTDYETHEFHLPSGVKSLNVQKASTERITSNATSDLNIKVDGRAIVRGNEGVFIMGKTIEFHMGGNMELKAENSIILNGSVMVSTTRLPSSSSGDQLGSGDWVRYKLCMCADGTLFKVQVTSQNMGCQISDNPCGNTH [N141Q] are within 0.2 log units of each other in “SGCB cell-surface expression functional score (log10)” value: -0.25 for the first, -0.08 for the second.

First: MAAAAAAAAEQQSSNGPVKKSMREKAVERRSVNKEHNSNFKAGYIPIDEDRLHKTGLRGRKGNLAICVIILLFILAVINLIITLVIWAVIRIGPNGCDSMEFHESGLLRFKQVSDMGVIHPLYKSTVGGRRNENLVITGNTQPIVFQQGTTKLSVENNKTSITSDIGMQFFDPRTQNILFSTDYETHEFHLPSGVKSLNVQKASTERITSNATSDLNIKVDGRAIVRGNEGVFIMGKTIEFHMGGNMELKAENSIILNGSVMVSTTRLPSSSSGDQLGSGDWVRYKLCMCADGTLFKVQVTSQNMGCQISDNPCGNTH [N141T]
Second: MAAAAAAAAEQQSSNGPVKKSMREKAVERRSVNKEHNSNFKAGYIPIDEDRLHKTGLRGRKGNLAICVIILLFILAVINLIITLVIWAVIRIGPNGCDSMEFHESGLLRFKQVSDMGVIHPLYKSTVGGRRNENLVITGNWQPIVFQQGTTKLSVENNKTSITSDIGMQFFDPRTQNILFSTDYETHEFHLPSGVKSLNVQKASTERITSNATSDLNIKVDGRAIVRGNEGVFIMGKTIEFHMGGNMELKAENSIILNGSVMVSTTRLPSSSSGDQLGSGDWVRYKLCMCADGTLFKVQVTSQNMGCQISDNPCGNTH [N141W]
The “SGCB cell-surface expression functional score (log10)” value of the first is higher: -0.25 for the first, -0.63 for the second.

Compared with MAAAAAAAAEQQSSNGPVKKSMREKAVERRSVNKEHNSNFKAGYIPIDEDRLHKTGLRGRKGNLAICVIILLFILAVINLIITLVIWAVIRIGPNGCDSMEFHESGLLRFKQVSDMGVIHPLYKSTVGGRRNENLVITGNSQPIVFQQGTTKLSVENNKTSITSDIGMQFFDPRTQNILFSTDYETHEFHLPSGVKSLNVQKASTERITSNATSDLNIKVDGRAIVRGNEGVFIMGKTIEFHMGGNMELKAENSIILNGSVMVSTTRLPSSSSGDQLGSGDWVRYKLCMCADGTLFKVQVTSQNMGCQISDNPCGNTH [N141S], MAAAAAAAAEQQSSNGPVKKSMREKAVERRSVNKEHNSNFKAGYIPIDEDRLHKTGLRGRKGNLAICVIILLFILAVINLIITLVIWAVIRIGPNGCDSMEFHESGLLRFKQVSDMGVIHPLYKSTVGGRRNENLVITGNNKPIVFQQGTTKLSVENNKTSITSDIGMQFFDPRTQNILFSTDYETHEFHLPSGVKSLNVQKASTERITSNATSDLNIKVDGRAIVRGNEGVFIMGKTIEFHMGGNMELKAENSIILNGSVMVSTTRLPSSSSGDQLGSGDWVRYKLCMCADGTLFKVQVTSQNMGCQISDNPCGNTH [Q142K] is lower in “SGCB cell-surface expression functional score (log10)” value: 0.17 for the first, -0.31 for the second.

MAAAAAAAAEQQSSNGPVKKSMREKAVERRSVNKEHNSNFKAGYIPIDEDRLHKTGLRGRKGNLAICVIILLFILAVINLIITLVIWAVIRIGPNGCDSMEFHESGLLRFKQVSDMGVIHPLYKSTVGGRRNENLVITGNNDPIVFQQGTTKLSVENNKTSITSDIGMQFFDPRTQNILFSTDYETHEFHLPSGVKSLNVQKASTERITSNATSDLNIKVDGRAIVRGNEGVFIMGKTIEFHMGGNMELKAENSIILNGSVMVSTTRLPSSSSGDQLGSGDWVRYKLCMCADGTLFKVQVTSQNMGCQISDNPCGNTH [Q142D] and MAAAAAAAAEQQSSNGPVKKSMREKAVERRSVNKEHNSNFKAGYIPIDEDRLHKTGLRGRKGNLAICVIILLFILAVINLIITLVIWAVIRIGPNGCDSMEFHESGLLRFKQVSDMGVIHPLYKSTVGGRRNENLVITGNNIPIVFQQGTTKLSVENNKTSITSDIGMQFFDPRTQNILFSTDYETHEFHLPSGVKSLNVQKASTERITSNATSDLNIKVDGRAIVRGNEGVFIMGKTIEFHMGGNMELKAENSIILNGSVMVSTTRLPSSSSGDQLGSGDWVRYKLCMCADGTLFKVQVTSQNMGCQISDNPCGNTH [Q142I] are within 0.2 log units of each other in “SGCB cell-surface expression functional score (log10)” value: -0.54 for the first, -0.41 for the second.

First: MAAAAAAAAEQQSSNGPVKKSMREKAVERRSVNKEHNSNFKAGYIPIDEDRLHKTGLRGRKGNLAICVIILLFILAVINLIITLVIWAVIRIGPNGCDSMEFHESGLLRFKQVSDMGVIHPLYKSTVGGRRNENLVITGNNMPIVFQQGTTKLSVENNKTSITSDIGMQFFDPRTQNILFSTDYETHEFHLPSGVKSLNVQKASTERITSNATSDLNIKVDGRAIVRGNEGVFIMGKTIEFHMGGNMELKAENSIILNGSVMVSTTRLPSSSSGDQLGSGDWVRYKLCMCADGTLFKVQVTSQNMGCQISDNPCGNTH [Q142M]
Second: MAAAAAAAAEQQSSNGPVKKSMREKAVERRSVNKEHNSNFKAGYIPIDEDRLHKTGLRGRKGNLAICVIILLFILAVINLIITLVIWAVIRIGPNGCDSMEFHESGLLRFKQVSDMGVIHPLYKSTVGGRRNENLVITGNNNPIVFQQGTTKLSVENNKTSITSDIGMQFFDPRTQNILFSTDYETHEFHLPSGVKSLNVQKASTERITSNATSDLNIKVDGRAIVRGNEGVFIMGKTIEFHMGGNMELKAENSIILNGSVMVSTTRLPSSSSGDQLGSGDWVRYKLCMCADGTLFKVQVTSQNMGCQISDNPCGNTH [Q142N]
The “SGCB cell-surface expression functional score (log10)” value of the first is higher: 0.97 for the first, -0.43 for the second.

First: MAAAAAAAAEQQSSNGPVKKSMREKAVERRSVNKEHNSNFKAGYIPIDEDRLHKTGLRGRKGNLAICVIILLFILAVINLIITLVIWAVIRIGPNGCDSMEFHESGLLRFKQVSDMGVIHPLYKSTVGGRRNENLVITGNNGPIVFQQGTTKLSVENNKTSITSDIGMQFFDPRTQNILFSTDYETHEFHLPSGVKSLNVQKASTERITSNATSDLNIKVDGRAIVRGNEGVFIMGKTIEFHMGGNMELKAENSIILNGSVMVSTTRLPSSSSGDQLGSGDWVRYKLCMCADGTLFKVQVTSQNMGCQISDNPCGNTH [Q142G]
Second: MAAAAAAAAEQQSSNGPVKKSMREKAVERRSVNKEHNSNFKAGYIPIDEDRLHKTGLRGRKGNLAICVIILLFILAVINLIITLVIWAVIRIGPNGCDSMEFHESGLLRFKQVSDMGVIHPLYKSTVGGRRNENLVITGNNFPIVFQQGTTKLSVENNKTSITSDIGMQFFDPRTQNILFSTDYETHEFHLPSGVKSLNVQKASTERITSNATSDLNIKVDGRAIVRGNEGVFIMGKTIEFHMGGNMELKAENSIILNGSVMVSTTRLPSSSSGDQLGSGDWVRYKLCMCADGTLFKVQVTSQNMGCQISDNPCGNTH [Q142F]
The “SGCB cell-surface expression functional score (log10)” value of the first is lower: -0.22 for the first, 0.14 for the second.

Compared with MAAAAAAAAEQQSSNGPVKKSMREKAVERRSVNKEHNSNFKAGYIPIDEDRLHKTGLRGRKGNLAICVIILLFILAVINLIITLVIWAVIRIGPNGCDSMEFHESGLLRFKQVSDMGVIHPLYKSTVGGRRNENLVITGNNCPIVFQQGTTKLSVENNKTSITSDIGMQFFDPRTQNILFSTDYETHEFHLPSGVKSLNVQKASTERITSNATSDLNIKVDGRAIVRGNEGVFIMGKTIEFHMGGNMELKAENSIILNGSVMVSTTRLPSSSSGDQLGSGDWVRYKLCMCADGTLFKVQVTSQNMGCQISDNPCGNTH [Q142C], MAAAAAAAAEQQSSNGPVKKSMREKAVERRSVNKEHNSNFKAGYIPIDEDRLHKTGLRGRKGNLAICVIILLFILAVINLIITLVIWAVIRIGPNGCDSMEFHESGLLRFKQVSDMGVIHPLYKSTVGGRRNENLVITGNNHPIVFQQGTTKLSVENNKTSITSDIGMQFFDPRTQNILFSTDYETHEFHLPSGVKSLNVQKASTERITSNATSDLNIKVDGRAIVRGNEGVFIMGKTIEFHMGGNMELKAENSIILNGSVMVSTTRLPSSSSGDQLGSGDWVRYKLCMCADGTLFKVQVTSQNMGCQISDNPCGNTH [Q142H] is lower in “SGCB cell-surface expression functional score (log10)” value: -0.01 for the first, -0.52 for the second.

First: MAAAAAAAAEQQSSNGPVKKSMREKAVERRSVNKEHNSNFKAGYIPIDEDRLHKTGLRGRKGNLAICVIILLFILAVINLIITLVIWAVIRIGPNGCDSMEFHESGLLRFKQVSDMGVIHPLYKSTVGGRRNENLVITGNNEPIVFQQGTTKLSVENNKTSITSDIGMQFFDPRTQNILFSTDYETHEFHLPSGVKSLNVQKASTERITSNATSDLNIKVDGRAIVRGNEGVFIMGKTIEFHMGGNMELKAENSIILNGSVMVSTTRLPSSSSGDQLGSGDWVRYKLCMCADGTLFKVQVTSQNMGCQISDNPCGNTH [Q142E]
Second: MAAAAAAAAEQQSSNGPVKKSMREKAVERRSVNKEHNSNFKAGYIPIDEDRLHKTGLRGRKGNLAICVIILLFILAVINLIITLVIWAVIRIGPNGCDSMEFHESGLLRFKQVSDMGVIHPLYKSTVGGRRNENLVITGNNLPIVFQQGTTKLSVENNKTSITSDIGMQFFDPRTQNILFSTDYETHEFHLPSGVKSLNVQKASTERITSNATSDLNIKVDGRAIVRGNEGVFIMGKTIEFHMGGNMELKAENSIILNGSVMVSTTRLPSSSSGDQLGSGDWVRYKLCMCADGTLFKVQVTSQNMGCQISDNPCGNTH [Q142L]
The “SGCB cell-surface expression functional score (log10)” value of the first is higher: -0.04 for the first, -0.54 for the second.

In the case of MAAAAAAAAEQQSSNGPVKKSMREKAVERRSVNKEHNSNFKAGYIPIDEDRLHKTGLRGRKGNLAICVIILLFILAVINLIITLVIWAVIRIGPNGCDSMEFHESGLLRFKQVSDMGVIHPLYKSTVGGRRNENLVITGNNAPIVFQQGTTKLSVENNKTSITSDIGMQFFDPRTQNILFSTDYETHEFHLPSGVKSLNVQKASTERITSNATSDLNIKVDGRAIVRGNEGVFIMGKTIEFHMGGNMELKAENSIILNGSVMVSTTRLPSSSSGDQLGSGDWVRYKLCMCADGTLFKVQVTSQNMGCQISDNPCGNTH [Q142A], the “SGCB cell-surface expression functional score (log10)” value is reported as -0.06.
